One assay concerns the target T1, P10mS.
T1 chain: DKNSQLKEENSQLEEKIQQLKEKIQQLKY
Briefly: two-hybrid library CCNG1.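 Also: natural log of median RNA to DNA barcode read ratio; higher means stronger binding.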

For another assay, the target named is T2, P11mS.
T2 chain: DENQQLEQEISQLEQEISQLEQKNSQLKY
Nature of the assay: two-hybrid library CCNG1.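 Also: natural log of median RNA to DNA barcode read ratio; higher means stronger binding.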

The target in a further assay is T3, P12mS.
T3 chain: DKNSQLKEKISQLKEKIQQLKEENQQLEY
Nature of the assay: two-hybrid library CCNG1.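 Also: natural log of median RNA to DNA barcode read ratio; higher means stronger binding.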

The next assay deals with T4, P3mS.
T4 chain: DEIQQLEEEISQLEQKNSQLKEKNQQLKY
Briefly: two-hybrid library CCNG1.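 Also: natural log of median RNA to DNA barcode read ratio; higher means stronger binding.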

Another assay has as its target T5, P4mS.
T5 chain: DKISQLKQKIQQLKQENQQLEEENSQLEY
Nature of the assay: two-hybrid library CCNG1.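 Also: natural log of median RNA to DNA barcode read ratio; higher means stronger binding.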

For the next assay, the target named is T6, P5mS.
T6 chain: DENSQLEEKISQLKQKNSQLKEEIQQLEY
Briefly: two-hybrid library CCNG1.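 Also: natural log of median RNA to DNA barcode read ratio; higher means stronger binding.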

A further assay concerns the target T7, P6mS.
T7 chain: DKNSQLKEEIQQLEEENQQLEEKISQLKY
Briefly: two-hybrid library CCNG1.

The next assay has as its target T8, P7mS.
T8 chain: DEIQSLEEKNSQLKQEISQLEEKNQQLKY
Briefly: two-hybrid library CCNG1.

A further assay deals with T9, P8mS.
T9 chain: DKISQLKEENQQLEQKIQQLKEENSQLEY
Nature of the assay: two-hybrid library CCNG1.

The next assay concerns the target T10, P9mS.
T10 chain: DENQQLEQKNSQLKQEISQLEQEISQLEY
Nature of the assay: two-hybrid library CCNG1.

For assay [1], the target named is T11, P4SN.
T11 chain: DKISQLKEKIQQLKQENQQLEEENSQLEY
Briefly: two-hybrid library CCNG1. Conditions: mean of both orientations.

In assay [2] the target is T11, P4SN. Briefly: two-hybrid library CCmax.
In the next assay the target is T12, 4H1347-bA.
T12 chain: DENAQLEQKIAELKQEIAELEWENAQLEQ
Briefly: two-hybrid library CCNG1.

Another assay addresses T13, 4H145-bA.
T13 chain: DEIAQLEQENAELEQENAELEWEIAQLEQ
Nature of the assay: two-hybrid library CCNG1.

For the next assay, the target named is T14, 4H2619-bA.
T14 chain: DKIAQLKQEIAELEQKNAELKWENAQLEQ
Briefly: two-hybrid library CCNG1.

The target of a further assay is T15, 4H2691-bA.
T15 chain: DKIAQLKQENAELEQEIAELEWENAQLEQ
Nature of the assay: two-hybrid library CCNG1.

The next assay has as its target T16, 4H3070-bA.
T16 chain: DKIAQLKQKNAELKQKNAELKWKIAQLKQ
Nature of the assay: two-hybrid library CCNG1.

In another assay the target is T17, 4H342-bA.
T17 chain: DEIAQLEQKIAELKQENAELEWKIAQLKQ
Nature of the assay: two-hybrid library CCNG1.

Another assay concerns the target T18, 4H3632-bA.
T18 chain: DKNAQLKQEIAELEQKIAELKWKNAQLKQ
Nature of the assay: two-hybrid library CCNG1.

The next assay has as its target T19, 4H496-bA.
T19 chain: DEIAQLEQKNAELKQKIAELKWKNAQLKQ
Nature of the assay: two-hybrid library CCNG1.

The next assay addresses T20, Core_INNN-es_KKEE.
T20 chain: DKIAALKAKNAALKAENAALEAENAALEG
Nature of the assay: two-hybrid library CCmax. Conditions: mean of both orientations.

The target in a further assay is T21, Core_NNIN-es_KEKK.
T21 chain: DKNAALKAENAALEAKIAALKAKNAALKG
Briefly: two-hybrid library CCmax. Conditions: mean of both orientations.

In the next assay the target is T22, O1-bH.
T22 chain: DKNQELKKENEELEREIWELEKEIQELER
Briefly: two-hybrid library CCNG1.

A further assay concerns the target T23, O10-bH.
T23 chain: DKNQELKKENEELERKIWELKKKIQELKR
Briefly: two-hybrid library CCNG1.

The next assay addresses T24, O11-bH.
T24 chain: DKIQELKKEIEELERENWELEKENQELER
Nature of the assay: two-hybrid library CCNG1.

A further assay addresses T25, O12-bH.
T25 chain: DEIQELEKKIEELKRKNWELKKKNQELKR
Nature of the assay: two-hybrid library CCNG1.

In the next assay the target is T26, O13-bH.
T26 chain: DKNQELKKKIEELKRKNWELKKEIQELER
Briefly: two-hybrid library CCNG1.

For a further assay, the target named is T27, O14-bH.
T27 chain: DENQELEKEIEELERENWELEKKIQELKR
Nature of the assay: two-hybrid library CCNG1.

Another assay concerns the target T28, O15-bH.
T28 chain: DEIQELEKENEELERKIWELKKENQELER
Briefly: two-hybrid library CCNG1.

In another assay the target is T29, O16-bH.
T29 chain: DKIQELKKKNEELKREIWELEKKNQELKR
Briefly: two-hybrid library CCNG1.

The target of another assay is T30, O2-bH.
T30 chain: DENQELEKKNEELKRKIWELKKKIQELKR
Nature of the assay: two-hybrid library CCNG1.

The next assay deals with T31, O3-bH.
T31 chain: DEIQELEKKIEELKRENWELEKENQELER
Briefly: two-hybrid library CCNG1.

A further assay deals with T32, O4-bH.
T32 chain: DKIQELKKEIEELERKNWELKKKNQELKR
Briefly: two-hybrid library CCNG1.

The next assay concerns the target T33, O5-bH.
T33 chain: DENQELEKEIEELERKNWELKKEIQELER
Nature of the assay: two-hybrid library CCNG1.

A further assay addresses T34, O6-bH.
T34 chain: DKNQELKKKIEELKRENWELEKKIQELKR
Nature of the assay: two-hybrid library CCNG1.

The next assay deals with T35, O7-bH.
T35 chain: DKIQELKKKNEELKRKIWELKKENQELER
Nature of the assay: two-hybrid library CCNG1.

The next assay has as its target T36, O8-bH.
T36 chain: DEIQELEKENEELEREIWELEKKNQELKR
Briefly: two-hybrid library CCNG1.

The target of the next assay is T37, O9-bH.
T37 chain: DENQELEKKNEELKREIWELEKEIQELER
Nature of the assay: two-hybrid library CCNG1.

The target in another assay is T38, Core_IINI-es_KEEE.
T38 chain: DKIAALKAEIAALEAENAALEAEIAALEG
Briefly: two-hybrid library CCmax. As to conditions: mean of both orientations.

In the next assay the target is T39, Core_NINN-es_KEKE.
T39 chain: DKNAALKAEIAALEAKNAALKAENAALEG
Nature of the assay: two-hybrid library CCmax. Conditions: mean of both orientations.

A further assay concerns the target T40, Core_NNNI-es_KEKE.
T40 chain: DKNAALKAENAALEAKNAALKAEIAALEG
Briefly: two-hybrid library CCmax. As to conditions: mean of both orientations.

For a further assay, the target named is T41, Core_NNNN-es_KKKE.
T41 chain: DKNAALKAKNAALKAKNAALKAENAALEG
Briefly: two-hybrid library CCmax. Conditions: mean of both orientations.

With DKNSQLKEENSQLEEKIQQLKEKIQQLKY [P10mS], the interaction score with P10mS is -0.344; in the assay with P11mS, 0.347; with P12mS, 0.126; with P3mS, -1.79; with P4mS, 0.178; with P5mS, -1.28. Besides, the interaction score with P6mS was -2.03; with P7mS it was 0.649; with P8mS it was -0.478; with P9mS it was -0.677.
As to DEIQQLEEEISQLEQKNSELKEKNQELKY [P3SN], the values for the interaction score in the assay with P4SN [1] and with P4SN [2] were 1.25 and -0.993, respectively.
As for DENAQLEQKIAELKQEIAELEWENAQLEQ [4H1347-bA], the interaction score with 4H1347-bA was -0.84; with 4H145-bA, -0.0112; in the assay with 4H2619-bA it was -0.421; with 4H2691-bA, -0.56; in the assay with 4H3070-bA it was -0.786; in the assay with 4H342-bA, -0.567. Also, the interaction score is 1.92 with 4H3632-bA and -0.596 in the assay with 4H496-bA.
For the molecule DEIAALEAENAALEAKNAALKAKNAALKG [Core_INNN-es_EEKK], the interaction score in the assay with Core_INNN-es_KKEE was determined as 1.67.
DENAALEAKNAALKAEIAALEAENAALEG [Core_NNIN-es_EKEE] showed an interaction score in the assay with Core_NNIN-es_KEKK of 1.32.
Take DKNQELKKENEELEREIWELEKEIQELER [O1-bH]: the interaction score in the assay with O1-bH was -0.259; in the assay with O10-bH, 0.782; in the assay with O11-bH, -0.522; with O12-bH, -0.434; with O13-bH it was 0.467; with O14-bH it was -0.549. Further, the interaction score in the assay with O15-bH was -0.695; with O16-bH, -0.655; with O2-bH, -0.214; in the assay with O3-bH it was -1.49; with O4-bH, -1.15; in the assay with O5-bH, -1.92. In addition, the interaction score was -0.62 in the assay with O6-bH, -0.877 in the assay with O7-bH, -2.35 in the assay with O8-bH and -2.31 with O9-bH.
As to DEIAALEAKIAALKAKNAALKAKIAALKG [Core_IINI-es_EKKK], the interaction score with Core_IINI-es_KEEE is 2.08.
DENAALEAKIAALKAENAALEAKNAALKG [Core_NINN-es_EKEK] gave an interaction score with Core_NINN-es_KEKE of 1.51.
DENAALEAKNAALKAENAALEAKIAALKG [Core_NNNI-es_EKEK] gave an interaction score in the assay with Core_NNNI-es_KEKE of 2.1.
Take DENAALEAENAALEAENAALEAKNAALKG [Core_NNNN-es_EEEK]: in the assay with Core_NNNN-es_KKKE, the interaction score is 0.962.

For the origin of these results see article PMC10397247.
